Source: US20150218551A1

Biological target: LR1-C1 envelope protein (Env variant of HIV-1 AC10) on virions (HIV-1)
Experiment: virion capture assay: virions titrated on plates coated with 4E10, bound virus measured by p24 ELISA; reference AC10 wild-type virions

4E10 antibody showed a fold increase in affinity against the AC10 wild-type variant of 4 fold.
